Assay results from paper PMC3839617.

Target: neuropilin 1 (human) (UniProt O14786)
Experiment: radioligand binding

Chain of UniProt O14786 (O14786 22-923): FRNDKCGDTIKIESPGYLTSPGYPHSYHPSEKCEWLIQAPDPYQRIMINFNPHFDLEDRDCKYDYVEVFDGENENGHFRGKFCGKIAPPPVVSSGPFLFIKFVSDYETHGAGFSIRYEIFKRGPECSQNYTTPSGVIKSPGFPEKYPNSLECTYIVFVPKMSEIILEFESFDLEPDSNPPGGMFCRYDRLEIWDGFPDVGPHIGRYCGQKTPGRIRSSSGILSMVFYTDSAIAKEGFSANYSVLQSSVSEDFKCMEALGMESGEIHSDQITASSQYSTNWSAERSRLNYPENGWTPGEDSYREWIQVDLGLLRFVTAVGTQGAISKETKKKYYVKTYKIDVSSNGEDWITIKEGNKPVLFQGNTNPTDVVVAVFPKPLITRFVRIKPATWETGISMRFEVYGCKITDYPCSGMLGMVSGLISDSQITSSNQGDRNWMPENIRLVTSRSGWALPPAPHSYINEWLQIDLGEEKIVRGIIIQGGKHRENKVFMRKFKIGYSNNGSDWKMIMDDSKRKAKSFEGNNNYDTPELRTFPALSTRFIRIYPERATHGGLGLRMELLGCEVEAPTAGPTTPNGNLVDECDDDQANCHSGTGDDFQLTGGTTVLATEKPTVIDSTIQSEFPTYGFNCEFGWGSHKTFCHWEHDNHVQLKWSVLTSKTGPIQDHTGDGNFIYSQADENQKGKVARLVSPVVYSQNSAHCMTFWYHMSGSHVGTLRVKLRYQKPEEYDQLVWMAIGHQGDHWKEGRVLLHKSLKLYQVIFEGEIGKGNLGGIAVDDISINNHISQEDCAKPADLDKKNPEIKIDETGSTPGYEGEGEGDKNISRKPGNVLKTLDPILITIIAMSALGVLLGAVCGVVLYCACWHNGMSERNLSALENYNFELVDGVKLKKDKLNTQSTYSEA

- I125VEGF bound: 413 fmol/µg
- I125VEGF bound in the presence of SN: 504 fmol/µg
Substance: VEGF labelled by radioactive iodine (from UniProt P15692 1-395) (ligand)
